According to IntAct's records for PubMed 17891176:

B1: DNA-binding protein inhibitor ID-1 (Homo sapiens), P41134 (parent)
chain: MKVASGSTATAAAGPSCALKAGKTASGAGEVVRCLSEQSVAISRCAGGAGARLPALLDEQQVNVLLYDMNGCYSRLKELVPTLPQNRKVSKVEILQHVIDYIRDLQLELNSESEVGTPGGRGLPVRAPLSTLNGEISALTAEAACVPADDRILCR

Variants of: B1
Conditions: with psmd4_human PSMD4, P55036
Sequence of psmd4_human PSMD4, P55036 (P55036 whole entry): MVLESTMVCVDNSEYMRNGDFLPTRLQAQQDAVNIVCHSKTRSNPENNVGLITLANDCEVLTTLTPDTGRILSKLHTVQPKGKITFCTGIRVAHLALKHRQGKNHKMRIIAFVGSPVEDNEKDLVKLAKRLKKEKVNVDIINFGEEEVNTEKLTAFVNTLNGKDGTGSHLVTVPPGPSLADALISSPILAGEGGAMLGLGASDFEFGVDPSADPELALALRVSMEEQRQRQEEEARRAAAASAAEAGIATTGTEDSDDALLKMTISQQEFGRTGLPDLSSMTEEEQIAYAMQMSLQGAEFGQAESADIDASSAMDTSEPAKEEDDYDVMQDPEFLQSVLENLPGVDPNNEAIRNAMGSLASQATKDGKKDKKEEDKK

Row | effect of a mutation on the interaction | Variant
1 | decreasing interaction | MKVASGSTATAAAGPSCALKAGKTASGAGEVVRCLSEQSVAISRCAGGAGARLPALLDEQQVNVLLYDMNGCYSRLKELVPTLPQNRKVSKVEILQHGIDYIRDLQLELNSESEVGTPGGRGLPVRAPLSTLNGEISALTAEAACVPADDRILCR [V98G]
